The record followed here is PMC8978339 (Cancer chemotherapy and pharmacology, 2021).

The experiment addresses T1, his-tagged PXRLBD (residues 130-434) (human, UniProt O75469 130-434).
T1 sequence (looked up): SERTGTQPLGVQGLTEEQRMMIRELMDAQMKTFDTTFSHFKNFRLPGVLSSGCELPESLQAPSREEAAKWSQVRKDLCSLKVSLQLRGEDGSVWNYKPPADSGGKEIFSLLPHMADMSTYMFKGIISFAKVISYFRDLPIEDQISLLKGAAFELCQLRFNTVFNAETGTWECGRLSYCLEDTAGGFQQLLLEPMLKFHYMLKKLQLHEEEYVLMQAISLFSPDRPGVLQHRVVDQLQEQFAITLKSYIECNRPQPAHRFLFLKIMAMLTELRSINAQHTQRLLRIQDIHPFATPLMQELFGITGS
The experiment can be described thus: pull-down.

B1: SRC186 (human SRC-1 fragment, residues 595-780) (domain or fragment, UniProt Q15788 595-780, looked up)
chain: MIQSDNSSSDGKPLDSGLLHNNDRLSDGDSKYSQTSHKLVQLLTTTAEQQLRHADIDTSCKDVLSCTGTSNSASANSSGGSCPSSHSSLTERHKILHRLLQEGSPSDITTLSVEPDKKDSASTSVSVTGQVQGNSSIKLELDASKKKESKDHQLLRYLLDKDEKDLRSTPNLSLDDVKVKVEKKEQ
modifications: biotin (labeled with biotin reagent)
As for B1, the binding result was “binds”.
